Legend:
[1] = biological target: human VEGFA-121-His (human) (UniProt P15692); test: KinExA equilibrium titration in solution, VEGFA-121
human VEGFA-165 (human) = human VEGFA-165 (human) (UniProt P15692); test: KinExA, VEGFA-165; set-up for VEGFA-165 not described
Pig VEGF-A-121 (pig) = Pig VEGF-A-121 (pig) (UniProt P49151); test: SPR crossreactivity set-up, VEGF-A121-His captured by anti-His antibody, Fab injected, single cycle kinetics
Chain of Pig VEGF-A-121 (pig) (P49151 other isoform, or with tags, fused parts or gaps limits assumed): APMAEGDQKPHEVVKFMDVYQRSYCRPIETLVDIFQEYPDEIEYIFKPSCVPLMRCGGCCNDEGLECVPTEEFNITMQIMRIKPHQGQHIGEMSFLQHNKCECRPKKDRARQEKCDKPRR

Chain of human VEGFA-165 (human) (P15692 other isoform, or with tags, fused parts or gaps limits assumed): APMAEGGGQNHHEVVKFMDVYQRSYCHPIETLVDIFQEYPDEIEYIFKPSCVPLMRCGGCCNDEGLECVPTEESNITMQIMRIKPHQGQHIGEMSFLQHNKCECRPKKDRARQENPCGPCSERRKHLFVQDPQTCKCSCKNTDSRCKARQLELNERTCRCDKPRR
Chain of human VEGFA-121-His (human) (P15692 other isoform, or with tags, fused parts or gaps): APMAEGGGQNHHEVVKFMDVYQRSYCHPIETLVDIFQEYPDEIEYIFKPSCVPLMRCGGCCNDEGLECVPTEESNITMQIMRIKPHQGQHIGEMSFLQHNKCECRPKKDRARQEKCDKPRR

Row | Kd [1] [pM] | Kd (human VEGFA-165 (human)) [pM] | Kd (Pig VEGF-A-121 (pig)) [pM] | koff (Pig VEGF-A-121 (pig)) [s⁻¹] | kon (Pig VEGF-A-121 (pig)) [M⁻¹ s⁻¹] | t1/2 (Pig VEGF-A-121 (pig)) [min] | Binder
1 | 2 | 1 | – | – | – | – | Brolucizumab-analogue (scFv, INN chains, looked up, V domains shown, scFv) VH: EVQLVESGGGLVQPGGSLRLSCTASGFSLTDYYYMTWVRQAPGKGLEWVGFIDPDDDPYYATWAKGRFTISRDNSKNTLYLQMNSLRAEDTAVYYCAGGDHNSGWGLDIWGQGTLVTVSS VL: EIVMTQSPSTLSASVGDRVIITCQASEIIHSWLAWYQQKPGKAPKLLIYLASTLASGVPSRFSGSGSGAEFTLTISSLQPDDFATYYCQNVYLASTNGANFGQGTKLTVL
2 | – | – | 2790 | 0.000499 | 179000 | 23 | bispecific anti-VEGF-A/anti-ANG2 Fab fragment P1AD9820 (Fab, V domains shown) VH: SEHLVESGGGLVKPGGSLRLSCATADFFEYDDMSWVRQAPGKGLEWVGSISPKGDHKYLNTKFIGRFTISRDDSKNTLYLQMNSLRAEDTAVYYCARDVGFFDWWGQGTLVTVSS VL: AIYMHQEPSSLSASVGDRVTITCHGSYWLNSEVAWYQQKPGKAPKLLIFDGDFKVYEVPSRFSGSGSHEDYTLTISSLQPEDFATYYCQQYRYHPYTFGHGTKVEIKR

From US20220073599A1
